Patent publication US20160264664A1 (Ablynx, published 2016)
Read-outs that look alike come from different tables or passages of the source.

Tests used:
mouse P2X7 [1] = molecular target: T1, mouse P2X7 (mouse, UniProt Q9Z1M0 1-595); test: phage ELISA on fixed mP2X7-CHO vs untransfected CHO cells;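 also: phage culture supernatant diluted 10-fold, applied for 1 h to paraformaldehyde-fixed, BSA-blocked cells in 96-well plates, with bound phage read via HRP-linked anti-M13 antibody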
T1 construct: on transfected CHO or Hek293 cells, or endogenous on Yac-1 cells; also called mP2X7; mouse purinoceptor P2X7
T1 sequence: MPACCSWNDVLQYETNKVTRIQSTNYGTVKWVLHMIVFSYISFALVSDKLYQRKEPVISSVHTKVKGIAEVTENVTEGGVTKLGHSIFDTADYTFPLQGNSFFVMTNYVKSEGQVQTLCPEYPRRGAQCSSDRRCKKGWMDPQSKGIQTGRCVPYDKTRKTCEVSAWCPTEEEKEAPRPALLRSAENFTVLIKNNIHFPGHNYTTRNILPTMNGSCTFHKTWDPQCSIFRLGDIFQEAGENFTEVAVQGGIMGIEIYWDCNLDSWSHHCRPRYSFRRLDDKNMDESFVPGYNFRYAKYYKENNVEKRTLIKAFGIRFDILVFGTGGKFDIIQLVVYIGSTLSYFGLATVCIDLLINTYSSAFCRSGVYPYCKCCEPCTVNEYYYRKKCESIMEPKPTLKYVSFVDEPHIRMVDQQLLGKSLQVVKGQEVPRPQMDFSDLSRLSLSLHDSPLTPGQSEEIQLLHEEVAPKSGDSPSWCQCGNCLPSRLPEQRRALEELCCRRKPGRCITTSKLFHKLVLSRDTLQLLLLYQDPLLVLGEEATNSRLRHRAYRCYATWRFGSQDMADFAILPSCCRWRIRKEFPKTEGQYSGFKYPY
Protocol: (§1) Sub-confluent cells were rinsed with PBS and fixed using 4% paraformaldehyde in PBS for 10 minutes at RT. Fixed cells were washed three times with PBS, and blocked with 2% BSA in PBS for 2 hours. Following blocking, 10-fold diluted culture supernatant containing phage was added and incubated for 1 hour. Cell-bound phage was detected via mouse anti-M13-HRP-conjugate (GE Healthcare, Cat nr. E2886). Rat mAb Hano43 was used as positive control.

mouse P2X7 [2] = molecular target: T1, mouse P2X7; test: flow cytometry, periplasmic extract pre-incubated with anti-myc-FITC, on mP2X7-Hek293 cells;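 also: periplasmic extract diluted 10-fold and premixed 45 min at 4 °C with FITC anti-myc antibody, giving pseudo-bivalent Nanobodies, before binding to the cells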
Protocol: Ten-fold diluted PE were pre-incubation with 0.5 μg anti-myc FITC-conjugated antibodies (AbD Serotec, cat no. MCA2200F) (creating pseudo-bivalent Nanobodies in order to increase binding strength) in 0.1 ml PBS/10% FCS for 45 minutes at 4° C. […] Alternatively, sequential staining of 10-fold diluted PE with anti-myc FITC-conjugated antibodies was done after incubation with the cells.

mouse P2X7 [3] = molecular target: T1, mouse P2X7; test: phage ELISA, mP2X7-CHO vs control CHO cells
Protocol: as §1

mouse P2X7 mutant R151A = molecular target: T2, mouse P2X7 mutant R151A (mouse, UniProt Q9Z1M0 1-595); test: flow cytometry, 1 µM Nanobody on transiently transfected Hek293 cells, normalised to Hano43 staining
T2 construct: transiently transfected Hek293 cells
T2 sequence: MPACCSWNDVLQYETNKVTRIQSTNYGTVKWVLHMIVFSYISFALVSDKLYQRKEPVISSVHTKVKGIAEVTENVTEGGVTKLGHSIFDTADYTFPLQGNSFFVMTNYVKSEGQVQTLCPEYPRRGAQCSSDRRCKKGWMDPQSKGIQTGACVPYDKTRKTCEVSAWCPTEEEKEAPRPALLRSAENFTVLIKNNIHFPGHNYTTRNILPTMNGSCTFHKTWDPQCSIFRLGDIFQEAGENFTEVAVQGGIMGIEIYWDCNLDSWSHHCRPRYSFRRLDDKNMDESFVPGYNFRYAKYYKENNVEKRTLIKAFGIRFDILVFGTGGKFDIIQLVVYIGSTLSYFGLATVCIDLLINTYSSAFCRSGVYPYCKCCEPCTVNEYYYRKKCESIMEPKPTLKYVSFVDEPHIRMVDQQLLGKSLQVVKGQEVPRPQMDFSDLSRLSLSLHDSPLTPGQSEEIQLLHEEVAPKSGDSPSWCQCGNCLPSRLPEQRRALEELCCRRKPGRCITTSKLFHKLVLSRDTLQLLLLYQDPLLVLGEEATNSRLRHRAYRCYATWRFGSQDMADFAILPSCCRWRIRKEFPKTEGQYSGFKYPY
Protocol: For flow cytometric assays, detection of Nanobodies was performed via anti-Myc and subsequent goat anti-mouse-PE conjugate, while an estimation of P2X7 expression densities was obtained via staining with rat monoclonal Hano43 followed by secondary anti-rat-PE conjugate.

mouse P2X7 [4] = molecular target: T1, mouse P2X7; test: cell-based or functional assay
human P2X7 = molecular target: T3, human P2X7 (human, UniProt Q99572 1-595); test: flow cytometry, Nanobody pre-incubated with anti-Myc-FITC
T3 construct: on transfected Hek293 cells; also called hP2X7
T3 sequence: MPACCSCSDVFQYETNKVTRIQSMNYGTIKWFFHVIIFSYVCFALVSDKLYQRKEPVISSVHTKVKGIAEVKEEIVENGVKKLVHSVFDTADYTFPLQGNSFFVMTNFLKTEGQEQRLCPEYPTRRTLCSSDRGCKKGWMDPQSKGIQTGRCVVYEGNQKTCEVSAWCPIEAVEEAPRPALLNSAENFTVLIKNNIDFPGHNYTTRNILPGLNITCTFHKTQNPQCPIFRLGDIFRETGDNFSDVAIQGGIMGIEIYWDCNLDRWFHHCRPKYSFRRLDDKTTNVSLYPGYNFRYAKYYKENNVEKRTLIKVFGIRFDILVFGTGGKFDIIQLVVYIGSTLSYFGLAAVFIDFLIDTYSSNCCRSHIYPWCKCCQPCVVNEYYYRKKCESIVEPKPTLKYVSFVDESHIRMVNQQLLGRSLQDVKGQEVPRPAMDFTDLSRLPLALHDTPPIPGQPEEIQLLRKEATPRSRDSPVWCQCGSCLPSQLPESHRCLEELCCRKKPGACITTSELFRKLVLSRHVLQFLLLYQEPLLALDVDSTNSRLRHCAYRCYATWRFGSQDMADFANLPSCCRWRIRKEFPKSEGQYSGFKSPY

human P2X4 = molecular target: T4, human P2X4 (human, UniProt Q99571 1-388); test: as above
T4 construct: whole, on cells; also called hP2X4
T4 sequence (looked up): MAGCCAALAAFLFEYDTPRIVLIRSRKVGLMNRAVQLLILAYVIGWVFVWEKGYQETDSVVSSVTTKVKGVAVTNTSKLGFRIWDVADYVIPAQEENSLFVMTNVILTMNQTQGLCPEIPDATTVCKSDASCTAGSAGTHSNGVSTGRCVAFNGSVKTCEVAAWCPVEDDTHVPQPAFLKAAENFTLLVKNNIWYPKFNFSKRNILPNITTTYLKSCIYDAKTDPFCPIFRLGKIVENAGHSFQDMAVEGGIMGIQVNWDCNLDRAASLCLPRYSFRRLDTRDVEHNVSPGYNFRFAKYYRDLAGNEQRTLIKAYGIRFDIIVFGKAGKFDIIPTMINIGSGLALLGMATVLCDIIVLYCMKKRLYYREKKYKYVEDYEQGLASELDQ

mouse P2X7 [5] = molecular target: T1, mouse P2X7; test: cell-based or functional assay; remark: listed apart in the source
mouse P2X7 [6] = molecular target: T1, mouse P2X7; test: cell-based or functional assay; remark: listed apart in the source
mouse P2X7 [7] = molecular target: T1, mouse P2X7; test: phage ELISA on fixed mP2X7-CHO vs untransfected CHO cells; phage ELISA, phage-displayed Nanobody, Cho P2X7 vs wt signal ratio
Protocol: as §1

mouse P2X7 [8] = molecular target: T1, mouse P2X7; test: cell-based or functional assay; remark: listed apart in the source
mouse P2X7 [9] = molecular target: T1, mouse P2X7; test: flow cytometry, purified Nanobody titrated on mP2X7-CHO cells

B1: P2X7PMP8G12 (VHH)
VHH: KVQLVESGGGLVQAGGSLRLSCAASGSFFRVNNMAWYRQGPGKQRELVADITRGDRTNYADSVNGRFTISRDNVRNTVYLQMNGLKPEDTAVYYCYATIELGVLEPRDYWGQGTQVTVSS
notes: family 5, 3; on phage or c-myc/His6-tagged in assays; also called 8012
Fold Cho P2X7/wt (phage ELISA) (mouse P2X7 [1]): 36 fold | MFI FACS (pre-Myc incubation) (mouse P2X7 [2]): 166 MFI | absorption ratio (ELISA) (mouse P2X7 [3]): 36 ratio | reduction of binding against WT mP2X7 (mouse P2X7 mutant R151A): > 90% | ATP IC50 by 2 uM NB (head prints 'mM'; ligand titration at fixed Nanobody, CD62L shedding, Yac-1 cells) (mouse P2X7 [4]): 0.29 mM | IC50 (nM) against 20 uM NAD (CD62L shedding, Yac-1 cells) (mouse P2X7 [4]): 82 nM | IC50 (nM) against 100 uM ATP (CD62L shedding, Yac-1 cells) (mouse P2X7 [4]): 55 nM | binding result (human P2X7): no binding (tested: 147 nM) | binding result (human P2X4): no binding (tested: 147 nM)

B2: P2X7PMP8G11 (VHH)
VHH: AVQLVESGGGLVQAGGSLRLSCAASGNFFRVNTMAWYRQAPGKQRELVADITRGDRTNYADTVNGRFTISRDNVRNTVYLQMNGLRPEDTAAYYCYAVIELGVLEPRDYWGQGTQVTVSS
notes: family 5, 1; on phage or c-myc/His6-tagged in assays; also called 8011
Fold Cho P2X7/wt (phage ELISA) (mouse P2X7 [1]): 26 fold | MFI FACS (pre-Myc incubation) (mouse P2X7 [2]): 166 MFI | absorption ratio (ELISA) (mouse P2X7 [3]): 26 ratio | reduction of binding against WT mP2X7 (mouse P2X7 mutant R151A): > 90% | ATP IC50 by 2 uM NB (head prints 'mM'; ligand titration at fixed Nanobody, CD62L shedding, Yac-1 cells) (mouse P2X7 [4]): 0.389 mM | IC50 (nM) against 20 uM NAD (CD62L shedding, Yac-1 cells) (mouse P2X7 [4]): 68 nM | IC50 (nM) against 100 uM ATP (CD62L shedding, Yac-1 cells) (mouse P2X7 [4]): 37 nM | binding result (human P2X4): no binding (tested: 147 nM) | IC50 (read off the curve) (mouse P2X7 [5]): ~60 nM | IC50 (read off the curve) (mouse P2X7 [6]): ~20 nM

B3: P2X7PMP2C4 (VHH)
VHH: EVQLVESGGDVVQAGGSLRLSCLASGFTFDDYAIGWFRQAPGKEREGISCISSTGNVFYADSVKGRFTISSDKEKNTLYLQMNSLKPEDTAVYHCAAGHFTVDSGKVLLRTDISSWGQGTQVTVSS
notes: family 1; on phage or c-myc/His6-tagged in assays
Fold Cho P2X7/wt (phage ELISA) (mouse P2X7 [7]): 4 fold | binding result (human P2X7): no binding (tested: 147 nM) | binding result (human P2X4): no binding (tested: 147 nM)

B4: P2X7PMP14D5 (VHH)
VHH: KVQLVESGGGLVQAGGSLRLSCAASGSPISSYAMGWYRQAPGKPRELVARIYTGGTAWYEDSVKGRFTISRDNAQNTVYLQMNSLKSEDTAVYYCHGRVRYDYWGQGTQVTVSS
notes: family 17; on phage or c-myc/His6-tagged in assays
Fold Cho P2X7/wt (phage ELISA) (mouse P2X7 [1]): 8 fold | ATP IC50 by 2 uM NB (head prints 'mM'; ligand titration at fixed Nanobody, CD62L shedding, Yac-1 cells) (mouse P2X7 [4]): 0.016 mM | binding result (human P2X4): no binding (tested: 147 nM) | EC50, enhancement of CD62L-ectodomain shedding at 1.5 µM NAD (mouse P2X7 [8]): 4.1 nM | EC50, enhancement of CD62L-ectodomain shedding at 33 µM ATP (mouse P2X7 [8]): 22.6 nM

B5: P2X7PMP7D5 (VHH)
VHH: EVQLVESGGGLVQAGDSLRLSCAASGRTFSSVAVGWFRQAPGKERDFVAWISWSGDSTYYADSVKGRFTASRDNVNNTVYLQMNSLKPEDTADYYCAAAWKYDRASYDFPEAYDYWGQGTQVTVSS
notes: family 14; on phage or c-myc/His6-tagged in assays
Fold Cho P2X7/wt (phage ELISA) (mouse P2X7 [1]): 14 fold | EC50 (mouse P2X7 [9]): 3 nM | reduction of binding against WT mP2X7 (mouse P2X7 mutant R151A): > 90% | binding result (human P2X7): no binding (tested: 147 nM) | binding result (human P2X4): no binding (tested: 147 nM)

B6: P2X7PMP20A11 (VHH)
VHH: EVQLVESGGRVMQTGGSLRLSCAASGHTFNDYNMGWFRQAPGKELEFLAGINWSGMSTWYADSVKDRFTISRDNNKNTVFLQMNSLEPGDTAVYYCAARQWISTIILTAPSQYDYWGQGTQVTVSS
notes: family 24; on phage or c-myc/His6-tagged in assays
Fold Cho P2X7/wt (phage ELISA) (mouse P2X7 [7]): 11 fold | binding result (human P2X7): no binding (tested: 147 nM) | binding result (human P2X4): no binding (tested: 147 nM)

B7: P2X7PMP7H6 (VHH)
VHH: EVQLVESGGGLVQPGGSLRLSCVVSGSMYRIDNMGWYRQAPGKQRELVATVTRGDITNYADSVKGRFTIGRDNAKNTVYLQMNSLKPADTAVYYCNIDSYIIGAGVRDYWGRGTQVTVSS
notes: family 11; on phage or c-myc/His6-tagged in assays
Fold Cho P2X7/wt (phage ELISA) (mouse P2X7 [1]): 23 fold | reduction of binding against WT mP2X7 (mouse P2X7 mutant R151A): > 90% | ATP IC50 by 2 uM NB (head prints 'mM'; ligand titration at fixed Nanobody, CD62L shedding, Yac-1 cells) (mouse P2X7 [4]): 0.494 mM | IC50 (nM) against 20 uM NAD (CD62L shedding, Yac-1 cells) (mouse P2X7 [4]): 208 nM | IC50 (nM) against 100 uM ATP (CD62L shedding, Yac-1 cells) (mouse P2X7 [4]): 123 nM | binding result (human P2X7): no binding (tested: 147 nM) | binding result (human P2X4): no binding (tested: 147 nM)

B8: P2X7PMP13F6 (VHH)
VHH: EVQLVESGGGLVQPGGSLRLSCAASGFTFSTNIMTWVRQAPGKGLEWISTINSGGGTTTYADSVRGRFTISRDNAKNMLYLQMSSLKPEDTALYYCITPRGVKGRGTQVTVSS
notes: family 20; on phage or c-myc/His6-tagged in assays
Fold Cho P2X7/wt (phage ELISA) (mouse P2X7 [7]): 20 fold | binding result (human P2X7): no binding (tested: 147 nM) | binding result (human P2X4): no binding (tested: 147 nM)

B9: P2X7PMP7E2 (VHH)
VHH: EVQLVESGGGLVQAGGSLRLSCAAPERTYSMGWFRQAPGKEREFVAGSGWDGIPTRYADSVKGRFTISRDNAKNTVSLQMSGLKPEDTAIYYCATGTSVYHYQYWGQGTQVTVSS
notes: family 3; on phage or c-myc/His6-tagged in assays
Fold Cho P2X7/wt (phage ELISA) (mouse P2X7 [1]): 25 fold | EC50 (mouse P2X7 [9]): 4.3 nM | reduction of binding against WT mP2X7 (mouse P2X7 mutant R151A): > 90% | binding result (human P2X7): no binding (tested: 147 nM) | binding result (human P2X4): no binding (tested: 147 nM)
